Tests used:
head-rod domain of NFL = target: T1, head-rod domain of NFL (Homo sapiens, UniProt P07196); assay: In vitro binding of in vitro translated PKN to GST-NFL; details: GST pull-down
T1 construct: made in house; host or cells: bacteria (bacterially synthesized)
T1 sequence (P07196 1-349): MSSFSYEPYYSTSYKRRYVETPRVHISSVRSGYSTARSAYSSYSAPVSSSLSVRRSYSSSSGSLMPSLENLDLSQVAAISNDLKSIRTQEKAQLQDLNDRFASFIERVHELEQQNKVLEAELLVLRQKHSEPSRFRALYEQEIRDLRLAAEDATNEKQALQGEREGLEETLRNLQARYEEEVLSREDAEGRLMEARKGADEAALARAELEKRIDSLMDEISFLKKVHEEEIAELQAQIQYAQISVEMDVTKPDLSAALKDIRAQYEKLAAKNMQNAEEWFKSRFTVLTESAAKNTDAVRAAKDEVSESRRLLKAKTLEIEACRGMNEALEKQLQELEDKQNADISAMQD
Source text: For in vitro transcription, truncated human PKN was made as follows; Expression vector pPKNN2 for N-terminal region of PKN (the amino acid sequence 1-474 in SEQ ID NO: 1, this region was designated as “PKNN2”) was made by digesting phPKN-H4 (a plasmid containing human PKN cDNA in pBluescript II SK (Mukai, H. & Ono, Y., Biochem. Biophys. Res. Commun. 199, 897-904 (1994)) with Bst EII, and filling in the ends with T4 DNA polymerase, and self-legation. This removed the original amino acid sequences C-terminal downstream of the BstEII site (1425 nucleotides from initiating ATG codon), and a stop codon was created in the plasmid sequence. Fragment coding for the amino acid sequence 614-942 in SEQ ID NO: 1, (This region was designated as “PKNC2”) containing the conserved catalytic domain of human PKN was made by PCR amplification. Expression vector pPKNC2 was made by subcloning this fragment into pRc/CMV (Invitfrogen Corp.). These plasmids were linealized by cutting with XbaI, and CRNA was transcribed using T7 RNA polymerase. For NFL, pBL (Nakagawa, T. et al., J. Cell. Biol. 129, 411-429 (1995)) was linealized by cutting with HindIII, and CRNA was transcribed using T3 RNA polymerase. For in vitro translation, these cRNAs were translated in rabbit reticulocyte lysate (Promega) in the presence of [^35S] methionine. […]

[1] = system: head-rod domain of vimentin; assay: Yeast two-hybrid, PKN N-terminal region with vimentin; type: binding; details: data not shown
Source text: Specificity of the interaction between PKN and various NFs was investigated by measuring the ability of the two-hybrid constructs, pBTM116(Vojtek, A. B. et al., Cell, 74, 205-214 (1993)) (instead of pGBT9)-PKN and pVP16 (Vojtek, A. B. et al., Cell, 74, 205-214 (1993)) (instead of pGAD10)-NF or in reverse, to support lacZ expression in L40 cells.
To determine whether N-terminal region of PKN binds to NFM or NFH as well as NFL, corresponding region to the head-rod domain of NFM or NFH was ligated to pVP16 and lacZ expression was measured in two-hybrid system. The N-terminal region of PKN bound to each head-rod domain of NF subunit (FIG. 11(B)), and also interacted with the corresponding head-rod domain of vimentin, a ubiquitously expressed member of intermediate filament, in two-hybrid system (data not shown).

binding to head-rod domain of NFL in vitro (head-rod domain of NFL): bound
Substance: N-terminal region of PKN: N-terminal regulatory region of human PKN: 1-540 (PKNN1) in two-hybrid and GST fusions, 1-474 when in vitro translated
interaction with head-rod domain of vimentin in two-hybrid system [1]: interacted

— patent US6660837B1, “Modified protein derived from protein kinase N” (Kirin Beer Kabushiki Kaisha, priority 1995, dated 2003)
